Experimental findings from patent US20220177597A1 (OSSIANIX, published 2022) are described below.

Sequences and labels used below:
B1: G10 VNAR-hFc fusion (Fc fusion)
chain: ARVDQTPQTITKETGESLTINCVLRDSNCALSSTYWYRKKSGSTNEENISKGGRYVETVNSGSKSFSLKINDLTVEDSGTYRCKVVFKLFSGRACAGEKDVYGGGTVVTVNA
notes: Bivalent VNAR-Fc, VNAR N-terminal to human IgG1 Fc; Expi293; not shown: human IgG1 Fc (hinge, CH2, CH3) of vector pFUSE-hIgG1e3-Fc2
B2: G6 VNAR-hFc fusion (Fc fusion)
chain: ARVDQTPQTITKEEGESLTINCVLRVETRALASTSWYRKKSGSTREETISKGGRYVETVNSGSKSFSLRINDLTVEDSGTYRCNVYIRHYSEFTQAPFRDVYGDGTAVTVNA
notes: as for B1
B3: A8 VNAR-hFc fusion (Fc fusion)
chain: ARVDQTPQTITKEEGESLTINCVLRRNFQLASTSWYRKKSGSTREETISKGGRYVETVNSGSKSFSLRINDLTVEDSGTYRCNVYGFVEFAKNIVEFIDVYGDGTAVTVNA
notes: as for B1
B4: F12 VNAR-hFc fusion (Fc fusion)
chain: ARVDQTPQTITKEEGESLTINCVLRVHGRALASTSWYRKKSGSTREETISKGGRYVETVNSGSKSFSLRINDLTVEDSGTYRCNVYGLSFGDIEGVKKIDVYGDGTAVTVNA
notes: Bivalent VNAR-Fc, VNAR N-terminal to human IgG1 Fc; Expi293; also called F12-hFc; clone F12; not shown: human IgG1 Fc (hinge, CH2, CH3) of vector pFUSE-hIgG1e3-Fc2
B5: F1 VNAR-hFc fusion (Fc fusion)
chain: B4 chain with F90S
notes: Bivalent VNAR-Fc, VNAR N-terminal to human IgG1 Fc; Expi293; also called Fl; not shown: human IgG1 Fc (hinge, CH2, CH3) of vector pFUSE-hIgG1e3-Fc2
B6: H12 VNAR-hFc fusion (Fc fusion)
chain: B4 chain with R29C, G91V
notes: as for B1
B7: H7 VNAR-hFc fusion (Fc fusion)
chain: ARVDQTPQTITKEEGESLTINCVLRYNNPALASTSWYRKKSGSTREETISKGGRYVETVNSGSKSFSLRINDLTVEDSGTYRCNVYFFPSFLVDKLQSHDVYGDGTAVTVNA
notes: as for B1
B8: F11 VNAR-hFc fusion (Fc fusion)
chain: ARVDQTPQTITKEEGESLTINCVLRGEFYALASTSWYRKKSGSTREETISKGGRYVETVNSGSKSFSLRINDLTVEDSGTYRCNVYGYRIFSPEVKGPNDVYGDGTAVTVNA
notes: as for B1
B9: D1 VNAR-hFc fusion (Fc fusion)
chain: ARVDQTPQTITKEEGESLTINCVLRHNYSALASTSWYRKKSGSTREETISKGGRYVETVNSGSKSFSLRINDLTVEDSGTYRCNVYGISFIEEKIRYDFDVYGDGTAVTVNA
notes: Bivalent VNAR-Fc, VNAR N-terminal to human IgG1 Fc; Expi293; also called D1-hFc; not shown: human IgG1 Fc (hinge, CH2, CH3) of vector pFUSE-hIgG1e3-Fc2
B10: E12A VNAR-hFc fusion (Fc fusion)
chain: ARVDQTPQTIAREEGESVTINCVVRDSNRALASTSWCSEKYVSTREESISKGGRYVETVNSGSKSFSLRINDLTVEDSGTYRCNVYFFPSFEVDVLQTNDVYGDGTAVTVNA
notes: as for B1
B11: B12 VNAR-hFc fusion (Fc fusion)
chain: ARVDQTPRSVTKETGESLTINCVLRDASYALGSTCWYRKKSGSTNEESISKGGRYVETVNSGSKSFSLRINDLTVEDGGTYRCGVARGWRTLNYLCDVRTGEWSCVWRAAACGDGTAVTVNA
notes: as for B1
B12: H6 VNAR-hFc fusion (Fc fusion)
chain: ARVDQTPQTITKEEGESLTINCVLRTHSNALASTSWYRKKSGSTREETISKGGRYVETVNSGSKSFSLRINDLTVEDSGTYRCNVYAFLEIQPNIYHEFDVYGDGTAVTVNA
notes: as for B1
B13: E12 VNAR-hFc fusion (Fc fusion)
chain: ARVDQTPQTITKEEGESLTINCVLRTQDPALASTSWYRKKSGSTREETISKGGRYVETVNSGSKSFSLRINDLTVEDSGTYRCNVYFLLAPTKTKLQGIDVYGDGTAVTVNA
notes: as for B1
B14: H8 VNAR-hFc fusion (Fc fusion)
chain: ARVDQTPQTITKETGESLTINCVLRDSNCALPSTYWYRKKSGSTNEESISKGGRYVETVNSGSKSFSLRINDLVVEDSGTYRCKVGNYCIRLCYDMKFAVDVYGGGTAVTVNA
notes: as for B1
B15: H7A VNAR-hFc fusion (Fc fusion)
chain: PGVDQTEQTIKKEEGESVTIKCVMRVKYPALASTSRYRKKSGSREETISKGGRYVETVNYSSKSISVRINDMTVEDSGRYRCNVYEEYAVDCDALVYQDVYGDGTAVTVNA
notes: as for B1
B16: G12 VNAR-hFc fusion (Fc fusion)
chain: ARVDQTPQTITKETGESLTINCVLRDSNCALSSTYWYRKKSGSTNEALISKGGRYVETVNSGSKSFSLRINDLTVEDSGTYRCNVVQDLRDDCFFRDVYGGGTAVTVNA
notes: as for B1
B17: C6 VNAR-hFc fusion (Fc fusion)
chain: B16 chain with Q87Y
notes: as for B1
B18: G3 VNAR-hFc fusion (Fc fusion)
chain: ARVDQTPQTITKETGESLTINCVLRDNNCALSTTYWYRKKSGSTNEENISKGGRYVETVNSGSKSFSLRINDLTVEDSGTYRCKVHFFPSFCNSTSIRSVDVYGGGTVVTVNA
notes: as for B1

Numbering of substitutions follows the chain as printed. Names may count otherwise.

T1 sequence (P02768 25-609 limits assumed): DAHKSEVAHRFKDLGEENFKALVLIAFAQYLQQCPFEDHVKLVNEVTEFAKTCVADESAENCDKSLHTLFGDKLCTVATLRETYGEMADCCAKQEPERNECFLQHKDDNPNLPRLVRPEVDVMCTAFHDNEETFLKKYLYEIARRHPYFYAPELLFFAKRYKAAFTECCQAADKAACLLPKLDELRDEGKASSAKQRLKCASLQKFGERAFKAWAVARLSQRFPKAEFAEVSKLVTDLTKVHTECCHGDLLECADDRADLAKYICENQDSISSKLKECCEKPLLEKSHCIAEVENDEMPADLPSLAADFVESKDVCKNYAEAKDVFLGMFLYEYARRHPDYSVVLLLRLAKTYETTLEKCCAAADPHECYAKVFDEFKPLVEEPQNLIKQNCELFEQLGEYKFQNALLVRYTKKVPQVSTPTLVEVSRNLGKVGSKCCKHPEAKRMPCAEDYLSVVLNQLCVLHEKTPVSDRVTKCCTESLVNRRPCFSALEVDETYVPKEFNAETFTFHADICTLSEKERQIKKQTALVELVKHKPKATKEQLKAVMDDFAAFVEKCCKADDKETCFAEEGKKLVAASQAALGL

One test concerns the target T1, human serum albumin (human, UniProt P02768 25-609).
T1 construct: Negative control antigen in ELISA; also called HSA
Nature of the test: ELISA, VNAR-hFc in Expi293 medium on coated HSA (negative control). From the text: The clones were reformatted as bivalent VNAR-Fc by cloning the VNARs into the commercial pFUSE vector (pFUSE-hIgG1e3-Fc2). The Fc region of the protein contained CH2 and CH3 domains with the hinge that served as a flexible spacer between the two parts of the Fc-fusion protein. N-termini of the construct contained the IL2 signal sequence to allow secretion. A HEK Expi293 expression system was used to transiently express the proteins. The VNAR clones were expressed as Fc formats in mammalian cells in small (1 ml) scale in 96-well plates. Media was collected and used directly for ELISA in order to confirm binding to the ectodomain of mouse and human CD98hc. Human serum albumin was used as the negative control.
Take B1: the “Binding [relative units]” value is 0.051 relative units.
The same measure, in the same setting: for B2 the value was 0.052 relative units; for B3, 0.065 relative units.
As for B4, the “Binding [relative units]” value was 0.112 relative units.
On the same count and under the same terms, for B5 the value was 0.073 relative units; for B6, 0.055 relative units; for B7, 0.072 relative units.
As to B8, the “Binding [relative units]” value amounted to 0.072 relative units.
Same read-out and setting: for B9 the value was 0.074 relative units.
Same read-out and setting: with B10 the figure was 0.063 relative units; with B11, 0.081 relative units.
On the same count and under the same terms, for B12 the value was 0.06 relative units; for B13, 0.056 relative units; for B14, 0.059 relative units.
For the molecule B15, the “Binding [relative units]” value turned out to be 0.054 relative units.
The same measure, in the same setting: with B16 the figure was 0.054 relative units; with B17, 0.052 relative units.
Same read-out and setting: for B18 the value was 0.053 relative units.

In another test the target is human CD98hc ectodomain (recombinant) (human) (UniProt P08195). Kind of test: ELISA, VNAR-hFc in Expi293 medium on coated ectodomain. (An ELISA detects its analyte on a solid surface through an enzyme-linked reagent.)
Sequence of human CD98hc ectodomain (recombinant) (human) (P08195 206-630): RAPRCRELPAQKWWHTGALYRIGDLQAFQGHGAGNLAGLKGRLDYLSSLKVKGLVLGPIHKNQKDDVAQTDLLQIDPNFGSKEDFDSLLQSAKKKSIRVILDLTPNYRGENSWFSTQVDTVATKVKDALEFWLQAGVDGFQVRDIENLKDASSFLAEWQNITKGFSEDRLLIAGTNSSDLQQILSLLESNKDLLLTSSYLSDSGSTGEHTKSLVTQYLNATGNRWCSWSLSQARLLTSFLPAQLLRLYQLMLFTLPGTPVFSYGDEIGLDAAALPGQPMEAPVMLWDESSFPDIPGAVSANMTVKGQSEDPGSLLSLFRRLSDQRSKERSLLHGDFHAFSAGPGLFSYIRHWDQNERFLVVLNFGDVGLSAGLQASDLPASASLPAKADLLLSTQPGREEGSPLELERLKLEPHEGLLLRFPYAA
As for B1, the Binding [relative units] (relative units) worked out at 0.043.
On the same count and under the same terms, with B2 the figure was 0.042; with B3, 2.97; with B4, 3.99.
On the same count and under the same terms, for B5 the value was 3.76; for B6, 0.046.
Still for that read-out and setting: for B7 the value was 3.93; for B8, 3.03.
On to B9, for which the Binding [relative units] (relative units) worked out at 3.5.
Same read-out and setting: for B10 the value was 0.049.
In the case of B11, the Binding [relative units] (relative units) worked out at 0.076.
Take B12: the Binding [relative units] (relative units) was found to be 3.31.
Consider B13, for which the Binding [relative units] (relative units) was 2.19.
Same read-out and setting: with B14 the figure was 0.048; with B15, 0.043; with B16, 0.044.
In the case of B17, the Binding [relative units] (relative units) stood at 0.041.
Still for that read-out and setting: for B18 the value was 1.48.

In a further test the target is mouse CD98hc ectodomain (recombinant) (mouse) (UniProt P10852). Described as above.
Sequence of mouse CD98hc ectodomain (recombinant) (mouse) (P10852 100-526): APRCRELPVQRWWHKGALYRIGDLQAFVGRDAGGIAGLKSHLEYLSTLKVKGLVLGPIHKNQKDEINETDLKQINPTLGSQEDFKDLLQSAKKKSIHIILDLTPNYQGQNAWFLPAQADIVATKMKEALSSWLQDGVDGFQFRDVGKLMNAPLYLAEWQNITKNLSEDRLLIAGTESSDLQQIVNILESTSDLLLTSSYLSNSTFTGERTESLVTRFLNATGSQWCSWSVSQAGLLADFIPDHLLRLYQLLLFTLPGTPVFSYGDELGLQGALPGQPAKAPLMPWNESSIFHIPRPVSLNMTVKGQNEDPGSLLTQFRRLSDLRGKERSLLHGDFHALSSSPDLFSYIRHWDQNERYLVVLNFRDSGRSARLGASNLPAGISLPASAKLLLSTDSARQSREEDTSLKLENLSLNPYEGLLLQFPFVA
With B1, the Binding [relative units] (relative units) turned out to be 0.041.
For the molecule B2, the Binding [relative units] (relative units) was found to be 0.041.
On the same count and under the same terms, for B3 the value was 0.135; for B4, 0.563; for B5, 0.115.
On to B6, for which the Binding [relative units] (relative units) was found to be 0.045.
The same measure, in the same setting: for B7 the value was 0.108; for B8, 0.096; for B9, 0.417.
On the same count and under the same terms, for B10 the value was 0.065.
On the same count and under the same terms, for B11 the value was 0.084.
In the case of B12, the Binding [relative units] (relative units) amounted to 0.186.
On the same count and under the same terms, for B13 the value was 0.078; for B14, 0.049; for B15, 0.043.
Same read-out and setting: for B16 the value was 0.044; for B17, 0.042.
On the same count and under the same terms, with B18 the figure was 0.041.

Another test deals with human CD98hc ectodomain (recombinant) (human) (UniProt P08195). Nature of the test: ELISA, purified VNAR-Fc titrated on plate-coated CD98hc (1 ug/mL).
B4: the EC50 (as a rule, the concentration needed to bring the measured effect to its halfway point) amounted to 12 nM.
On the same count and under the same terms, with B5 the figure was 3 nM; with B7, 6 nM.
Still for that read-out and setting: with B9 the figure was 28 nM; with B12, 6 nM; with B13, 56 nM.
Turning to B18, the EC50 was 107 nM.

Another test deals with mouse CD98hc ectodomain (recombinant) (mouse) (UniProt P10852). The description is as above.
As to B4, the EC50 was 72 nM.
Still for that read-out and setting: with B5 the figure was 3860 nM; with B7, 504 nM.
On the same count and under the same terms, for B9 the value was 190 nM.
On the same count and under the same terms, for B12 the value was 86 nM; for B13, 819 nM.
